This is an account of results in paper PMC8789040.

Series [1] deals with LS4 (Archaeoglobus fulgidus scaffold, laboratory-evolved) (UniProt O29494). The experiment in a line: EMSA. The settings on record: titration regime; SPR: 10 mM HEPES pH 7.4, 150 mM NaCl, 1 mM MgCl2, 0.05% P20, 0.25 mM TCEP, 0.1 mg/ml BSA, 25 ug/ml yeast tRNA, 25 C; EMSA: 10 mM HEPES-KOH pH 7.5, 140 mM KCl ….
In series [2] the target is T1, LS12 E34S (Archaeoglobus fulgidus scaffold, laboratory-evolved) (UniProt O29494).
T1 sequence: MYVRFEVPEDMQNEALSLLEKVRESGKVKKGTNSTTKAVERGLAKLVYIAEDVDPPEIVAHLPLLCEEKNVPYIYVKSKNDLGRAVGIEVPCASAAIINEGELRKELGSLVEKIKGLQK
The experiment in a line: EMSA. The note with it: titration regime; SPR: 10 mM HEPES pH 7.4, 150 mM NaCl, 1 mM MgCl2, 0.05% P20, 0.25 mM TCEP, 0.1 mg/ml BSA, 25 ug/ml yeast tRNA, 25 C; EMSA: 10 mM HEPES-KOH pH 7.5, 140 mM KCl ….

Series [3] addresses T1, LS12 E34S (Archaeoglobus fulgidus scaffold, laboratory-evolved). The experiment in a line: SPR. The settings on record: SPR: 10 mM HEPES pH 7.4, 150 mM NaCl, 1 mM MgCl2, 0.05% P20, 0.25 mM TCEP, 0.1 mg/ml BSA, 25 ug/ml yeast tRNA, 25 C, EMSA: 10 mM HEPES-KOH pH 7.5, 140 mM KCl …. (In general: Mobility shift assays separate free from complexed probe on a gel.)
The target in series [4] is LS4 (Archaeoglobus fulgidus scaffold, laboratory-evolved) (UniProt O29494). The experiment in a line: SPR. The settings on record: SPR: 10 mM HEPES pH 7.4, 150 mM NaCl, 1 mM MgCl2, 0.05% P20, 0.25 mM TCEP, 0.1 mg/ml BSA, 25 ug/ml yeast tRNA, 25 C; EMSA: 10 mM HEPES-KOH pH 7.5, 140 mM KCl ….

“AGAGGCAGAGAAAGGGAAACCUUGUGAGGCCUCU [Cy5-CS1]”: the Kd in series [1] is less than 0.5 nM.
In turn, “AGAGGCAGAGAAGGAAACUUCCAUGACGCCUCU [Cy5-CS2]” showed a Kd in series [2] of less than 0.5 nM.
Take “GGAUCGCGUGAUCCGAAAGGUGACGAUCCAAAUCGACGAAAGACACAGAACG [Box C/D Kt (Kt_SPR)]”: the Kd was 14.5 nM in series [3] and 599 nM in series [4].
“GGAUGCAGAGAACGAAAGUUCCAUGACGCAUCCAAAUCGACGAAAGACACAGAACG [CS2]”: the Kd in series [3] amounted to 0.00724 nM; in series [4], 114 nM.
With “GGAUGCAGAGAACGAAAGUUCCAUUACGCAUCCAAAUCGACGAAAGACACAGAACG [CS2-M3]”, in series [3], the dissociation constant Kd turned out to be 6.02 nM.
Sequence “GGCAGAGAAAGGCCAUACAAUCAUUGGCCUUGUGAGGCCGUGUGUCUUCCAGUGGCAUCGACGAAAGACACAGAACG [LS4-1]” returned a Kd in series [4] of 0.0736 nM.
“GGCAGAGAAAGGCCAUACAAUCAUUGGCUUUUCCAUGACGCCAGUUCCAGUGGCAUCGACGAAAGACACAGAACG [LS12-1]” displayed a Kd in series [3] of 0.0105 nM.
“GGUGGCAAAGAAAGGCGAAAGCCUUGUGAGGCCAUCAAAUCGACGAAAGACACAGAACG [CS1-M2b]” showed a Kd fold change relative to LS4 (fold higher Kd than LS4) in series [3] of 1270. Further, the Kd in series [4] was found to be 0.0865 nM.
Consider “GGUGGCAGAGAAAGGCGAAAGCCUUGUGAGGCCAUCAAAUCGACGAAAGACACAGAACG [CS1]”, for which the Kd was 27.5 nM in series [3] (equilibrium analysis) and 0.00682 nM in series [4].
Turning to “GGUGGCAUAGAAAGGCGAAAGCCUUGUGUGGCCAUCAAAUCGACGAAAGACACAGAACG [CS1-M2]”, the equilibrium dissociation constant (Kd) in series [3] (N.D. in Table S4) is greater than 1000 nM; in series [4], 2.21 nM.
As to “GGUGGCUGAGAAAGGCGAAAGCCUUGUGAUGCCAUCAAAUCGACGAAAGACACAGAACG [CS1-M1]”, the Kd in series [3] (equilibrium analysis) turned out to be 7.7 nM; in series [4], 0.171 nM.

In general, Kd refers to the free concentration of one partner at which half of the binding sites on the other are occupied at equilibrium, for simple one-to-one binding. Read a low Kd as tighter binding.
